Consider 1 molecule from paper PMC12768534 (2025).

The target of one assay is human IL-21 receptor (human, UniProt Q9HBE5 20-538). The experiment in a line: BLI.
The target in a further assay is murine IL-21R (murine, UniProt Q9JHX3 20-529). As to the kind of experiment: BLI. A general note: In BLI a coated tip is dipped into the sample, and binding shifts an interference pattern.
Assay [1] deals with T1, human common cytokine receptor γ chain (human, UniProt P31785 23-369).
T1 chain: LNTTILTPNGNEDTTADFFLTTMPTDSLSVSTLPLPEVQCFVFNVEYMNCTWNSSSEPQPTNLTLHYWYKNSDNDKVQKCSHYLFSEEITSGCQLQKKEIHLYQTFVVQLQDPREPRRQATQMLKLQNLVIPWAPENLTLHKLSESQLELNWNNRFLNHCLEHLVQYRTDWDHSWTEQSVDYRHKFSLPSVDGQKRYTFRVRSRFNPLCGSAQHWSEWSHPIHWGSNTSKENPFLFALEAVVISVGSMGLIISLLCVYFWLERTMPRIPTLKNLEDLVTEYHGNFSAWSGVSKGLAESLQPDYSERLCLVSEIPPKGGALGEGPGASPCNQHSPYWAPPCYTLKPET
The experiment in a line: BLI; in presence of hIL-21R (hIL-21R/hγc).

The next assay deals with T2, murine γc (murine, UniProt P34902 23-369).
T2 chain: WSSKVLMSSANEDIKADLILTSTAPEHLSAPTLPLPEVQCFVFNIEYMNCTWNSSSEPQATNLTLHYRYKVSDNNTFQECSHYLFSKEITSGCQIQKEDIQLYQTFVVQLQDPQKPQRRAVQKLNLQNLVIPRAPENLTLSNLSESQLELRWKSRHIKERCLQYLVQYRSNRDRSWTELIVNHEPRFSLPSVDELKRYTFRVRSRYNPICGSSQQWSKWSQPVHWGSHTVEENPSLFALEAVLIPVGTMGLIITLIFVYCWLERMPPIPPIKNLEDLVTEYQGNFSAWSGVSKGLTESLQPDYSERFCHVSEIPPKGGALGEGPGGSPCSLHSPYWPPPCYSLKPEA
As to the kind of experiment: BLI; in presence of mIL-21R (mIL-21R/mγc).

Chain of human IL-21 receptor (Q9HBE5 20-538): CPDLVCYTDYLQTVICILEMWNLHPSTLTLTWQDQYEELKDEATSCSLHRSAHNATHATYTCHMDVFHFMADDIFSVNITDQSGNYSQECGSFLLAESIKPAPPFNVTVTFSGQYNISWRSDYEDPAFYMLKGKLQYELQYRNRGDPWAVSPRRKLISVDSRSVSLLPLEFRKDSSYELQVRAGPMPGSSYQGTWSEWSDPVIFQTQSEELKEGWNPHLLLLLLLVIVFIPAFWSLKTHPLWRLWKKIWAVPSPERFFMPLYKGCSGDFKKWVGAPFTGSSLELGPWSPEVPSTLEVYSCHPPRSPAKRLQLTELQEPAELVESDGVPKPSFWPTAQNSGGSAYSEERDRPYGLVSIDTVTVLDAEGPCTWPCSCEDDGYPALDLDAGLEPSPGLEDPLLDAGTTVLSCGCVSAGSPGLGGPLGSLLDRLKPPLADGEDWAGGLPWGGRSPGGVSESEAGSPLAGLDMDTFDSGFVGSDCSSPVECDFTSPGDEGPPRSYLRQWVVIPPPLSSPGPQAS

B1: 21h10 (designed binder)
chain: DEEELKEIMKEAAECARKELEKLDNTDEDTRWLKITLKKIVRMANRIVRMREREADSKRFEIRMRGLIDIADHVKREFASEDLKEVMERAKSAAQKALGRWL
For B1, the dissociation constant Kd (as a rule, a measure of binding affinity in units of concentration) was determined as 0.0737 nM with human IL-21 receptor, 5.17 nM with murine IL-21R, 85.5 nM in assay [1] and 93.3 nM in the assay with murine γc.
